{"source": "paper PMC6255834", "about": "“Single point mutations reveal amino acid residues important for Chromobacterium violaceum transaminase activity in the production of unnatural amino acids” (Scientific Reports, 2018)", "experiment_in_all_cases": "purified protein", "key": {"purified protein [1]": {"substrate": "CCCCCCC(=O)C(=O)O", "conditions": "amino acceptor, 10 mM 1-PEA as donor, pH 7, 45 °C"}, "purified protein [2]": {"substrate": "COC(=O)CC(C)=O", "conditions": "amino acceptor, 10 mM 1-PEA as donor, pH 7, 45 °C, highest concentration tested 20 mM"}, "purified protein [3]": {"substrate": "C[C@H](N)c1ccccc1", "conditions": "amino donor, full reaction with 2.5 mM 2-OOA as acceptor, pH 7, 45 °C"}}}
{"protein": "CV_TA (Chromobacterium violaceum DSM30191 transaminase; ω-TA) (Chromobacterium violaceum ATCC 12472) (protein) MQKQRTTSQWRELDAAHHLHPFTDTASLNQAGARVMTRGEGVYLWDSEGNKIIDGMAGLWCVNVGYGRKDFAEAARRQMEELPFYNTFFKTTHPAVVELSSLLAEVTPAGFDRVFYTNSGSESVDTMIRMVRRYWDVQGKPEKKTLIGRWNGYHGSTIGGASLGGMKYMHEQGDLPIPGMAHIEQPWWYKHGKDMTPDEFGVVAARWLEEKILEIGADKVAAFVGEPIQGAGGVIVPPATYWPEIERICRKYDVLLVADEVICGFGRTGEWFGHQHFGFQPDLFTAAKGLSSGYLPIGAVFVGKRVAEGLIAGGDFNHGFTYSGHPVCAAVAHANVAALRDEGIVQRVKDDIGPYMQKRWRETFSRFEHVDDVRGVGMVQAFTLVKNKAKRELFPDFGEIGTLCRDIFFRNNLIMRACGDHIVSAPPLVMTRAEVDEMLAVAERCLEEFEQTLKARGLA", "values": [{"measurement": "Km", "setting": "purified protein [1]", "value": "400 ± 150", "unit": "µM"}, {"measurement": "kcat", "setting": "purified protein [1]", "value": "0.412 ± 0.0733", "unit": "s⁻¹"}, {"measurement": "kcat/Km", "setting": "purified protein [1]", "value": 1030, "unit": "M⁻¹ s⁻¹"}, {"measurement": "Km", "setting": "purified protein [2]", "value": "18800 ± 5000", "unit": "µM"}, {"measurement": "kcat", "setting": "purified protein [2]", "value": "0.155 ± 0.0117", "unit": "s⁻¹"}, {"measurement": "kcat/Km", "setting": "purified protein [2]", "value": 8.33, "unit": "M⁻¹ s⁻¹"}, {"measurement": "Km", "setting": "purified protein [3]", "value": "2600 ± 630", "unit": "µM"}]}
